Reference: the supplement of paper PMC7877785
± gives the uncertainty stated by the source.

Experiment: self-splicing fitness, log relative to wild type (ln ratio); higher = more splicing; Tetrahymena group I intron in knt gene, E. coli kanamycin selection, DiMSum; sequences stand for … in CUCUCU…GGAGGGAAAAGUUAUCAGGCAUGCACCUGGUAGCUAGUCUUUAAACCAAUAGAUUGCAUCGGUUUAAAAGGCAAGACCGUCAAAUUGCGGGAAAGGGGUCAACAGCCGUUCAGUACCAAGUCUCAGGGGAAACUUUGAGAUGGCCUUGCAAAGGGUAUGGUAAUAAGCUGACGGACAUGGUCCUAACCACGCAGCCAAGUCCUAAGUCAACAGAUCUUCUGUUGAUAUGGAUGCAGUUCACAGACUAAAUGUCGGUCGGGGAAGAUGUAUUCUUCUCAUAAGAUAUAGUCGGACCUCUCCUUAAUGGGAGCUAGCGGAUGAAGUGAUGCAACACUGGAGCCGCUGGGAACUAAUUUGUAUGCGAAAGUAUAUUGAUUAGUUUUGGAGUACUCGUGGUCG
Method in brief: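 The eight P1ex-region nucleotides of an intron in the knt kanamycin-resistance gene on pET-22b(+) were all randomised and the library put into E. coli BL21(DE3). Six replicate transformations were grown overnight at 37°C or 30°C on LB agar with or without 25 μg/mL kanamycin, together with 100 μg/mL carbenicillin, 50 μM IPTG and 0.2% rhamnose. Colonies were pooled and amplicon-sequenced on an Illumina HiSeq 2500. Fitness from DiMSum is the error-weighted combination of wild-type-normalised replicate fold changes, kanamycin over none.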

Row | Sequence | self-splicing fitness (ln) (30 °C) | self-splicing fitness (ln) (37 °C)
1 | AUGAAGCAAUAUUACGCAGA | -1.63 ± 0.12 | -0.868 ± 0.1
2 | AUGAAGCAAUAUUACGCGCC | -0.426 ± 0.085 | -0.127 ± 0.11
3 | AUGAAGCAAUAUUACGCGUC | -4.16 ± 0.2 | -1.48 ± 0.13
4 | AUGAAGCAAUAUUACGCUUA | -0.65 ± 0.061 | -0.151 ± 0.075
5 | AUGAAGCAAUAUUACGGACA | -0.277 ± 0.077 | 0.5 ± 0.11
6 | AUGAAGCAAUAUUACGGGGA | -2.4 ± 0.15 | -1.31 ± 0.17
7 | AUGAAGCAAUAUUACGGUGC | -2.3 ± 0.15 | -1.99 ± 0.19
8 | AUGAAGCAAUAUUACGUAGC | -4.32 ± 0.42 | -1.45 ± 0.27
9 | AUGAAGCAAUAUUACGUGUU | -1.64 ± 0.063 | -1.64 ± 0.078
10 | AUGCAGCAAUAUUACGACAU | -0.23 ± 0.012 | 0.215 ± 0.032
11 | AUGCAGCAAUAUUACGACGU | -0.0321 ± 0.072 | 0.706 ± 0.083
12 | AUGCAGCAAUAUUACGAGGA | -3.57 ± 0.28 | -2.9 ± 0.21
13 | AUGCAGCAAUAUUACGAGUG | -2.88 ± 0.11 | -1.64 ± 0.11
14 | AUGCAGCAAUAUUACGCAAG | -1.92 ± 0.091 | -1.72 ± 0.096
15 | AUGCAGCAAUAUUACGCAUA | – | -2.06 ± 0.38
16 | AUGCAGCAAUAUUACGCAUC | – | -2.67 ± 0.28
17 | AUGCAGCAAUAUUACGCCCA | -1.11 ± 0.12 | 0.0949 ± 0.14
18 | AUGCAGCAAUAUUACGCUCU | -1.34 ± 0.084 | 0.22 ± 0.084
19 | AUGCAGCAAUAUUACGCUUG | -3.06 ± 0.12 | -2.85 ± 0.18
20 | AUGCAGCAAUAUUACGCUUU | -2.72 ± 0.11 | -1.75 ± 0.11
21 | AUGCAGCAAUAUUACGGAAA | -1.86 ± 0.23 | -2.17 ± 0.28
22 | AUGCAGCAAUAUUACGGUAU | -4.16 ± 0.27 | -1.42 ± 0.14
23 | AUGCAGCAAUAUUACGGUCA | -1.2 ± 0.14 | -1.08 ± 0.14
24 | AUGCAGCAAUAUUACGUAGG | -1.72 ± 0.082 | -1.16 ± 0.11
25 | AUGCAGCAAUAUUACGUCGU | -0.894 ± 0.11 | -1.66 ± 0.13
26 | AUGCAGCAAUAUUACGUCUA | -0.692 ± 0.12 | 0.148 ± 0.1

Row | Sequence | self-splicing fitness (ln) (30 °C) | self-splicing fitness (ln) (37 °C)
27 | AUGCAGCAAUAUUACGUUUG | -3.45 ± 0.17 | -1.82 ± 0.17
28 | AUGGAGCAAUAUUACGACAC | -1.26 ± 0.32 | -1.08 ± 0.26
29 | AUGGAGCAAUAUUACGACCU | -0.472 ± 0.14 | 0.103 ± 0.18
30 | AUGGAGCAAUAUUACGAUAA | -2.21 ± 0.26 | –
31 | AUGGAGCAAUAUUACGCAGU | -3.57 ± 0.37 | -3.17 ± 0.37
32 | AUGGAGCAAUAUUACGCCGG | -2.78 ± 0.46 | –
33 | AUGGAGCAAUAUUACGCUUA | -2.53 ± 0.33 | -0.194 ± 0.21
34 | AUGGAGCAAUAUUACGGACU | -1.2 ± 0.18 | -0.626 ± 0.23
35 | AUGGAGCAAUAUUACGGCUC | -2.53 ± 0.45 | –
36 | AUGGAGCAAUAUUACGGGUG | -3.75 ± 0.39 | -2.18 ± 0.22
37 | AUGGAGCAAUAUUACGGUAA | – | -1.08 ± 0.16
38 | AUGGAGCAAUAUUACGGUAU | -3.49 ± 0.16 | -1.32 ± 0.1
39 | AUGGAGCAAUAUUACGGUUU | -2.56 ± 0.26 | -2.26 ± 0.21
40 | AUGGAGCAAUAUUACGUACG | -3.38 ± 0.47 | -2.58 ± 0.36
41 | AUGGAGCAAUAUUACGUAGG | -3.11 ± 0.17 | -2.76 ± 0.23
42 | AUGGAGCAAUAUUACGUAUC | -3.83 ± 0.47 | -1.67 ± 0.24
43 | AUGGAGCAAUAUUACGUAUG | -4.28 ± 0.46 | -3.19 ± 0.37
44 | AUGGAGCAAUAUUACGUCUU | -2.52 ± 0.16 | -1.81 ± 0.21
45 | AUGGAGCAAUAUUACGUGUA | -3.43 ± 0.26 | -3.04 ± 0.23
46 | AUGUAGCAAUAUUACGACUG | -0.943 ± 0.1 | -0.461 ± 0.1
47 | AUGUAGCAAUAUUACGAGCC | – | -1.05 ± 0.49
48 | AUGUAGCAAUAUUACGAUAU | -0.909 ± 0.11 | 0.222 ± 0.14
49 | AUGUAGCAAUAUUACGAUCG | -2.2 ± 0.15 | -1.12 ± 0.2
50 | AUGUAGCAAUAUUACGCUUG | -1.06 ± 0.14 | -0.51 ± 0.15
51 | AUGUAGCAAUAUUACGGAAG | – | -2.01 ± 0.31
52 | AUGUAGCAAUAUUACGGCGU | -1.14 ± 0.11 | -0.716 ± 0.094

Row | Sequence | self-splicing fitness (ln) (30 °C) | self-splicing fitness (ln) (37 °C)
53 | AUGUAGCAAUAUUACGGUAA | -2.15 ± 0.23 | -1.36 ± 0.17
54 | AUGUAGCAAUAUUACGGUGA | -1.57 ± 0.13 | -1.52 ± 0.16
55 | AUGUAGCAAUAUUACGGUGU | -3.04 ± 0.16 | -0.843 ± 0.1
56 | AUGUAGCAAUAUUACGGUUA | -0.747 ± 0.17 | -0.518 ± 0.14
57 | AUGUAGCAAUAUUACGGUUC | -1.72 ± 0.099 | -1.29 ± 0.12
58 | AUGUAGCAAUAUUACGUAUA | -1.99 ± 0.2 | -1.58 ± 0.21
59 | AUGUAGCAAUAUUACGUCCC | -1.73 ± 0.17 | -1.02 ± 0.27
60 | AUGUAGCAAUAUUACGUCUG | -1.94 ± 0.19 | -2.83 ± 0.26
61 | AUGUAGCAAUAUUACGUCUU | -1.62 ± 0.13 | -0.0792 ± 0.13
62 | AUGUAGCAAUAUUACGUUCC | -1.92 ± 0.12 | -0.942 ± 0.17
63 | AUUAAGCAAUAUUACGAAUU | -2.27 ± 0.16 | -1.46 ± 0.21
64 | AUUAAGCAAUAUUACGACGA | -0.668 ± 0.11 | 0.398 ± 0.13
65 | AUUAAGCAAUAUUACGAGCA | -0.83 ± 0.15 | -0.726 ± 0.18
66 | AUUAAGCAAUAUUACGAGGC | -3.18 ± 0.39 | -1.99 ± 0.34
67 | AUUAAGCAAUAUUACGAGUC | -3.25 ± 0.15 | -3.29 ± 0.21
68 | AUUAAGCAAUAUUACGCAGA | -2.88 ± 0.27 | -1.36 ± 0.2
69 | AUUAAGCAAUAUUACGCAUG | -1.09 ± 0.08 | -0.301 ± 0.11
70 | AUUAAGCAAUAUUACGGACA | -0.398 ± 0.22 | -0.339 ± 0.2
71 | AUUAAGCAAUAUUACGGCAU | -0.722 ± 0.076 | -0.458 ± 0.094
72 | AUUAAGCAAUAUUACGGCGU | -0.179 ± 0.073 | 0.712 ± 0.097
73 | AUUAAGCAAUAUUACGGUGU | -2.11 ± 0.088 | -0.653 ± 0.11
74 | AUUAAGCAAUAUUACGUCCG | -1.47 ± 0.13 | -0.734 ± 0.17
75 | AUUAAGCAAUAUUACGUCUC | -2.06 ± 0.12 | -1.4 ± 0.19
76 | AUUAAGCAAUAUUACGUGCC | -0.626 ± 0.096 | -1.07 ± 0.14
77 | AUUCAGCAAUAUUACGACAC | -1.45 ± 0.14 | 0.224 ± 0.17
